Data on 2 molecules can be found in paper PMC5770569.

Test [1] has as its target Purified recombinant EGFL7 (Sino Biological Inc.) (human) (UniProt Q9UHF1). As to the kind of experiment: SPR.
The target in test [2] is Fluorescein-labeled E7p72. As to the kind of experiment: flow cytometry on cells.
Test [3] concerns the target E7p74, re-synthesized with a Cys for the SPR chip. The experiment in a line: SPR.
In test [4] the target is E7p72, re-synthesized with a Cys for the SPR chip. As to the kind of experiment: SPR.

For “A647-CPMV-PEG viral nanoparticle (control)”, the dissociation rate constant (koff) in test [1] was 0.00124 s⁻¹.

B1: Purified EGFL7 (SPRimager II experiments and blocking study) (natural protein)
chain: YRPGRRVCAVRAHGDPVSESFVQRVYQPFLTTCDGHRACSTYRTIYRTAYRRSPGLAPARPRYACCPGWKRTSGLPGACGAAICQPPCRNGGSCVQPGRCRCPAGWRGDTCQSDVDECSARRGGCPQRCVNTAGSYWCQCWEGHSLSADGTLCVPKGGPPRVAPNPTGVDSAMKEEVQRLQSRVDLLEEKLQLVLAPLHSLASQALEHGLPDPGSLLVHSFQQLGRIDSLSEQISFLEEQLGSCSCKKDS
Take B1: the percent decrease in the uptake of FITC-E7p72 by EA.hy926 cells with 3x EGFL7 in test [2] worked out at 64.5%. For the same molecule, the Kd in test [3] stood at 14.3 nM; in test [4], 13.2 nM.
